Data on two molecules can be found in US20030138452A1.

Assay [1] deals with chemokine receptors of MCP-3 on murine splenocytes and purified T cells. Briefly: cell-based or functional assay.
Assay [2] addresses chemokine receptor of IP-10 on murine splenocytes and purified T cells (murine) (UniProt O88410). Briefly: cell-based or functional assay.
UniProt O88410, sequence (O88410 whole entry): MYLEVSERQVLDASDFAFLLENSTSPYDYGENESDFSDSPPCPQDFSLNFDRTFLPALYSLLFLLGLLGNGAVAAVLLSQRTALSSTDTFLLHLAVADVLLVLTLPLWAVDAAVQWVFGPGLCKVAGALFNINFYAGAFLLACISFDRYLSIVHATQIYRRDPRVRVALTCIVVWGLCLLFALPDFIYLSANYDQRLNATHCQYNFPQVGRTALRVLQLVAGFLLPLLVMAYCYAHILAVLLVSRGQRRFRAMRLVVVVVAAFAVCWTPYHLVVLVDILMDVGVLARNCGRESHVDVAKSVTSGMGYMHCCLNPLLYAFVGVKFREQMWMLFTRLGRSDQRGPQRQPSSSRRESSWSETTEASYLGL

Take “MCP3FBscFv38MH (MCP-3 fused to scFv38 of the 38c13 lymphoma) (from UniProt Q03366 24-97)”: the in vitro chemotaxis of murine lymphocytes (48-well microchemotaxis chamber): concentration of maximum activity in assay [1] stood at 100 µg/mL.

B1: IP10FBscFv38MH (murine IP-10 fused to scFv38 of the 38c13 lymphoma) (protein, part only; not given: scFv38 VH and VL, tags, not shown: small tags and cut ends)
chain, part: IPLARTVRCNCIHIDDGPVRMRAIGKLEIIPASLSCPRVEIIATMKKNDEQRCLNPESKTIKNLMKAFSQKRSKRAPEFNDQAPKSLE
In assay [2], B1 came in with an in vitro chemotaxis of murine lymphocytes (48-well microchemotaxis chamber): concentration of maximum activity of 100 µg/mL.
